From PMC8843702 (2022)

B1: P5-22 (antibody, V domains shown)
VH: EVQLVESGGGLVKPGGSLRLSCAASGFTFRDYDIIWIRQAPGKGLEWVSYISRSGSTIYYSDSVRGRFTISRDNAKNSVYLQMNSLRAEDTAVYYCARDFGFEGPRMDVWGQGTTVTVSS
VL: DIQMTQSPSSLSASVGDRVTITCQASQDIKNYLNWYQQKPGKAPKLLIYDASNLETGVPSRFSGSGSGTDFTFTISSLQPEDIATYYCQQFDNLPITFGQGTRLEIK
B2: polymeric P5-22 (antibody, V domains shown)
VH: B1 VH
VL: B1 VL

Columns and labels:
Assay in all cases: SPR
[1] = biological target: T1, WT SARS-CoV-2 S RBD protein (SARS-CoV-2, UniProt P0DTC2)
[2] = biological target: T1, WT SARS-CoV-2 S RBD protein; remark: listed apart in the source
SARS-CoV-2 S protein = SARS-CoV-2 S protein (SARS-CoV-2, UniProt P0DTC2)

| Binder | Kd [1] | koff [2] | Kd (SARS-CoV-2 S protein) |
| --- | --- | --- | --- |
| B1 | < 4.59 pM | < 1e-05 s⁻¹ | < 3.34 pM |
| B2 | < 0.498 pM | < 1e-05 s⁻¹ |  |
